Source: patent publication US20210206850A1 (ACCURUS BIOSCIENCES, published 2021)

Assays:
[1] = target: T1, human CD47 (full length) expressed on cells (human, UniProt Q08722 19-323); experiment: FACS ligand blocking on CD47-CHO cells; blocked ligand FITC human SIRPa huFc at 4 ug/ml
T1 construct: whole, on cells; also called human CD47/CHO cells; CHO/CD47 cells
Experimental: To evaluate the blocking effect of anti-human CD47 mouse/human chimeric antibodies to human full length CD47 expressed on CHO cells, the FACS-based ligand blocking assay was used. CD47-CHO cells were first incubated with 3 fold serially diluted mouse/human chimeric mAbs starting at 100 μg/ml on ice for 30 min. […] The cells were then washed 3 times with the FACS buffer and the mean florescence intensities (MFI) of FITC were evaluated by FACS Caliber. […] AB6.12 is a humanized version of anti-CD47 antibody 2A1 from Celgene and was used as a reference antibody in the assay.

[2] = target: T2, human CD47ECD His tagged protein (human, UniProt Q08722 19-139, limits assumed); experiment: SPR (Biacore 3000); antibody captured on anti-human Fc chip, monovalent HuCD47ECD 8xHis injected
T2 construct: extracellular domain; also called HuCD47ECD 8xHis; monovalent CD47ECD His tagged protein
Experimental: (§1) The binding affinities of anti-human CD47 mouse/human chimeric antibodies to human CD47 protein were determined with BIACORE™ using a capture method. The anti-human CD47 mouse/human chimeric antibodies were captured using anti-human Fc antibody coated on a CMS chip. Serial dilutions of human CD47ECD mouse Fc protein starting from 400 nM were injected over captured antibody for 1 mins at a flow rate of […]. Alternatively, serial dilutions of human CD47ECD His tagged protein starting from 800 nM were injected over captured antibody for 1 min at a flow rate of […]. The antigens were allowed to dissociate for 900s. All the experiments were carried out on a Biacore 3000. Data analysis was carried out using Biacore 3000 evaluation software.

[3] = target: T3, human CD47ECD mouse Fc protein (human, UniProt Q08722 19-139, limits assumed); experiment: SPR (Biacore 3000); antibody captured on anti-human Fc chip, bivalent HuCD47ECD muFc injected; column Affinity (nM)
T3 construct: extracellular domain; also called HuCD47ECD muFc; bivalent CD47ECD muFc protein; not shown: mouse Fc
Experimental: as §1

[4] = target: T3, human CD47ECD mouse Fc protein; experiment: SPR (Biacore 3000); antibody captured on anti-human Fc chip, bivalent HuCD47ECD muFc injected
Experimental: as §1

[5] = target: T2, human CD47ECD His tagged protein; experiment: SPR (Biacore 3000); antibody captured on anti-human Fc chip, monovalent HuCD47ECD 8xHis injected; column Affinity (nM)
Experimental: as §1

[6] = target: T1, human CD47 (full length) expressed on …; experiment: FACS ligand blocking on CD47-CHO cells; blocked ligand FITC human SIRPa huFc at 5 ug/ml
Experimental: The cells were then washed 3 times with the FACS buffer and the mean florescence intensities (MFI) of FITC were evaluated by FACS Caliber.

[7] = target: T2, human CD47ECD His tagged protein; experiment: ELISA ligand blocking, plate coated with human CD47 ECD His tagged protein at 1 ug/ml; blocked ligand human SIRPaECD muFc at 1 ug/ml, anti-mouse IgG-HRP
Experimental: Briefly, microtiter plates were coated with human CD47ECD His tagged protein at 1 μg/ml in PBS, 100 μl well at 4° C. overnight, then blocked with 100 μl/well of 2% BSA. […] The plates were washed with PBS/Tween and then incubated with anti-mouse IgG-HRP for 1 hour at 37° C. After washing, the plates were developed with TMB substrate and analyzed by spectrophotometer at OD 450 nm.

T1 sequence (Q08722 19-323): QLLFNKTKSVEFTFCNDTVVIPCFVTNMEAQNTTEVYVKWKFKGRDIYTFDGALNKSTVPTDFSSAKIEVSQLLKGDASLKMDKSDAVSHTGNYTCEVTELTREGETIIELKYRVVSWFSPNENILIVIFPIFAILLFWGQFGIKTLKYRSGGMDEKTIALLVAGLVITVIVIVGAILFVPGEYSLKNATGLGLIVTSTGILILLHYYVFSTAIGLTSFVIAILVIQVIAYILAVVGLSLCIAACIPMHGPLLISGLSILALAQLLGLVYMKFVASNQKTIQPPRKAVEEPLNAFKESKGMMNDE
T2 sequence (Q08722 19-139 limits assumed): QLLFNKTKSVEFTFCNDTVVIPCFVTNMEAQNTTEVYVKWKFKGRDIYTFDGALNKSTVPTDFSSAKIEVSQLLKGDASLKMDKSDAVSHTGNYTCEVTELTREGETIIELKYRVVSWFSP
T3 sequence (Q08722 19-139 limits assumed): as above

| Binder | IC50 [1] [µg/mL] | Kd [2] [nM] | koff [2] [s⁻¹] | kon [2] [M⁻¹ s⁻¹] | Kd [3] [nM] | Kd [4] [nM] | koff [4] [s⁻¹] | kon [4] [M⁻¹ s⁻¹] | Kd [5] [nM] | IC50 [6] [µg/mL] | IC50 [7] [µg/mL] |
| --- | --- | --- | --- | --- | --- | --- | --- | --- | --- | --- | --- |
| D125S3 mouse/human chimeric anti-human CD47 antibody (antibody, V domains shown, also called chimeric D125S3) VH: EVQLVESGGDLVKPGGSLNLSCAASGFTFSDYGMSWVRQTPDMRLEWVATISKYGTYTSYPDSVKGRFTISRSNAKNTLYLQMSSLKSADTALYYCARRFFGNYNYWYFDVWGAGTTVTVSS VL: DIVLTQSPASLAVSLGQRATFSCRASESVDEFGISYIHWYKKSPGQPPKLLIYRASTLESGISARFSGSGSGTDFTLTINPVETDDVATYYCQQSNQDPLTFGAGTKLELK | 15.4 | 3.62 | 0.000511 | 163000 | 0.346 | 0.346 | 7.72e-05 | 223000 | 3.62 | – | – |
| D8S1 mouse/human chimeric anti-human CD47 antibody (antibody, V domains shown, also called chimeric D8S1) VH: EVQLQQSVAELVRPGASVKLSCTVSGFNIKNTYIYWVKQRPEQGLEWIGRIDPANGNTKDAPKFQGKATMTADTSSNTAYLQLSSLTSEDTAIYYCARGYGSGFAYWGQGTLVTVSA VL: DIQMTQTTSSLSASLGDRVTISCRASQDISNHLNWYQQKPDGIVKLLIYYTSRLHSGVPSRFSGSGSGTDYSLTISNLEQEDIATYFCQQGSTLPFTFGSGTKLEIK | 19.4 | 3.28 | 0.00049 | 150000 | 0.295 | 0.295 | 4.77e-05 | 161000 | 3.28 | – | – |
| D96S1 mouse/human chimeric anti-human CD47 antibody (antibody, V domains shown, also called chimeric D96S1) VH: EVQLQQSGAELVKPGASVKLSCTASGFNIKDTYIHWVKQRPEQGLEWIGRIDPANGNIKSDPKFQGKATVTADTSSNTAYLQLSSLTSEDTAVYYCARSYGSSFASWGQGTLVTVSP VL: DIQMTQTTSSLSASLGDRVTISCRASQDISNHLNWYQQKPDGAVKLLIYYTSRLHSGVPSRFSGSGSGTDYSLTISNLEQEDIATYFCQQGSTFPYTFGGGTKLEIK | 11.3 | 3.13 | 0.000253 | 80900 | 0.562 | – | 1.45e-05 | 257000 | 3.13 | – | – |
| D41S2 mouse/human chimeric anti-human CD47 antibody (antibody, V domains shown, also called chimeric D41S2) VH: EVQLQQSVAELVRPGASVKLSCTPSGFNIKNTYIYWVRQRPEQGLEWIGRIDPANGNTKDAPKFQGKATMTADTSSNTAYLQLSSLTSEDTAIYYCARGYGSGFAYWGQGTLVTVSA VL: DIQMTQTTSSLSASLGDRVTISCRASQDISNHLNWYQQKPDGTVKLLIYYTSRLHSGVPSRFSGSGSGTDYSLTISNLEQEDIATYFCQQGSTLPFTFGSGTKLEIK | 11.6 | 5.2 | 0.000756 | 145000 | 0.228 | 0.228 | 3.34e-05 | 147000 | 5.2 | – | – |
| HuD36S4 H2/L1 humanized anti-CD47 antibody (antibody, V domains shown) VH: EVQLVESGGGLVQPGGSLRLSCAASGFTFSRYWMNWVRQAPGKGLEWVGQIRLKSDNYETHYAESVKGRFTISRDDSKNSLYLQMNSLKTEDTAVYYCIEEGGYYVPFAYWGQGTLVTVSS VL: DIVMTQSPDSLAVSLGERATINCKSSQSLFKSRTRKNYLAWYQQKPGQPPKLLIYWASIRESGVPDRFSGSGSGTDFTLTISSLQAEDVAVYYCKQSYYLLTFGGGTKVEIK | – | – | – | – | – | – | – | – | – | 1.9 | 0.09 |
| HuD36S4 H2/L2 humanized anti-CD47 antibody (antibody, V domains shown) VH: EVQLVESGGGLVQPGGSLRLSCAASGFTFSRYWMNWVRQAPGKGLEWVGQIRLKSDNYETHYAESVKGRFTISRDDSKNSLYLQMNSLKTEDTAVYYCIEEGGYYVPFAYWGQGTLVTVSS VL: DIVMTQTPLSLPVTPGEPASISCKSSQSLFKSRTRKNYLAWYLQKPGQSPQLLIYWASIRESGVPDRFSGSGSGTDFTLKISRVEAEDVGVYYCKQSYYLLTFGGGTKVEIK | – | – | – | – | – | – | – | – | – | 3.6 | 0.11 |
| HuD36S4 H1/L1 humanized anti-CD47 antibody (antibody, V domains shown) VH: EVQLVESGGGLVQPGGSLRLSCAASGFTFSRYWMNWVRQAPGKGLEWVGQIRLKSDNYETHYAESVKGRFTISRDDSKNSLYLQMNSLKTEDTAVYYCAREGGYYVPFAYWGQGTLVTVSS VL: DIVMTQSPDSLAVSLGERATINCKSSQSLFKSRTRKNYLAWYQQKPGQPPKLLIYWASIRESGVPDRFSGSGSGTDFTLTISSLQAEDVAVYYCKQSYYLLTFGGGTKVEIK | – | – | – | – | – | – | – | – | – | 7.3 | 2.3 |
| HuD36S4 H1/L2 humanized anti-CD47 antibody (antibody, V domains shown) VH: EVQLVESGGGLVQPGGSLRLSCAASGFTFSRYWMNWVRQAPGKGLEWVGQIRLKSDNYETHYAESVKGRFTISRDDSKNSLYLQMNSLKTEDTAVYYCAREGGYYVPFAYWGQGTLVTVSS VL: DIVMTQTPLSLPVTPGEPASISCKSSQSLFKSRTRKNYLAWYLQKPGQSPQLLIYWASIRESGVPDRFSGSGSGTDFTLKISRVEAEDVGVYYCKQSYYLLTFGGGTKVEIK | – | – | – | – | – | – | – | – | – | 13 | 2.76 |
| HuD36S4 H3/L2 humanized anti-CD47 antibody (antibody, V domains shown) VH: EVQLVESGGGLVQPGGSLRLSCAASGFTFSRYWMNWVRQAPGKGLEWVAQIRLKSDNYETHYAESVKGRFTISRDDSKSSLYLQMNSLKTEDTAVYYCIEEGGYYVPFAYWGQGTLVTVSS VL: DIVMTQTPLSLPVTPGEPASISCKSSQSLFKSRTRKNYLAWYLQKPGQSPQLLIYWASIRESGVPDRFSGSGSGTDFTLKISRVEAEDVGVYYCKQSYYLLTFGGGTKVEIK | – | – | – | – | – | – | – | – | – | 2.5 | 0.1 |
| HuD36S4 H3/L1 humanized anti-CD47 antibody (antibody, V domains shown) VH: EVQLVESGGGLVQPGGSLRLSCAASGFTFSRYWMNWVRQAPGKGLEWVAQIRLKSDNYETHYAESVKGRFTISRDDSKSSLYLQMNSLKTEDTAVYYCIEEGGYYVPFAYWGQGTLVTVSS VL: DIVMTQSPDSLAVSLGERATINCKSSQSLFKSRTRKNYLAWYQQKPGQPPKLLIYWASIRESGVPDRFSGSGSGTDFTLTISSLQAEDVAVYYCKQSYYLLTFGGGTKVEIK | – | – | – | – | – | – | – | – | – | 4.4 | 0.17 |
| D36S4 mouse/human chimeric anti-human CD47 antibody (antibody, V domains shown, also called chimeric D36S4 antibody; D36S4 H/L) VH: EVKLEESGGGLVQPGGSMKLSCVASGFTFSRYWMNWVRQSPDKGLEWVAQIRLKSDNYETHYAESVKGRFTISRDDSKSSVYLQMNNLRAEDTGIYYCIEEGGYYVPFAYWGQGTLVTVSA VL: DIVVSQSPSSLAVSAGEKVTMSCKSSQSLFKSRTRKNYLAWYQQRPGQSPKLLIYWASIRESGVPDRFTGSGSGTEFTLTISSVQAEDLAVYYCKQSYYLLTFGAGTKLELK | 5.1 | 0.702 | 0.000236 | 337000 | 0.0194 | 0.0194 | 1.18e-05 | 605000 | 0.702 | 1.6 | 0.07 |
| D28S1 mouse/human chimeric anti-human CD47 antibody (antibody, V domains shown, also called chimeric D28S1; D28S1VH/VL) VH: EVQLVESGGDLVKPGGSLKLSCAASGFTFTSYGMSWVRQTPDKRLEWVATINTGGSYTYYPDSVKGRFTISRDNAKNTLYLQMSSLKSEDTAMYYCARHTIKSLMDYWGQGTSVTVSS VL: ETTVTQSPASLSMAIGEKVTIRCITSTDIDDDMNWYQQKPGEPPKLLISEGNTLRPGVPSRFSSSGYGTDFVFIIENMFSEDVADYYCLQSDNLPYTFGSGTKLEIK | 12.3 | – | – | – | 1.38 | 1.38 | 0.000413 | 299000 | – | – | – |
